B1: CDPK8-HIS protein (tomato calcium-dependent protein kinase 8, Solyc11g065660, His-tagged, expressed in vitro and purified) (protein)
chain: MGNCCGTPGNSSENKKKKNKPNPFALDYGATQASGGDGNKLVVLKDPTGHNIQEKYDLGCELGRGEFGVTYLCTDVDTGDKYACKSISKKKLRTAVDIDDVRREVEIMKHLPKHPNIVTLKDTYEDDNAVHIVMELCEGGELFDRIVARGHYTERAAAVIMKTIVEVVQMCHMHGVMHRDLKPENFLFGNKKETAPLKAIDFGLSVFFKPGERFNEIVGSPYYMAPEVLKRNYGPEVDVWSAGVILYILLCGVPPFWAETEQGVAQAIIRSVVDFKRDPWPKVSDNAKDLVKKMLDPDPTRRLTAQQVLEHTWLQNIKKAPNVSLGETVKARLKQFSVMNKLKKRALTIMAEFLSAEEVAGMKDAFDMMDTGKKGKINLGELKNGLQKLGHQIPDVDLQILMEAADVDGDGSLNYGEFVAVSVHLRKMANDEHLHKAFSVFDRDQSGYIEIEELRSALSDEDGGNSEEVINAIMHDVDTDKDGRISYEEFAAMMKAGTDWRKASRQYSRERFNSLSLKLMRDGSIQVGKEEGR
B2: mCDPK8-His protein without kinase activity (CDPK8 lacking two key amino acids) (protein)
chain: MGNCCGTPGNSSENKKKKNKPNPFALDYGATQASGGDGNKLVVLKDPTGHNIQEKYDLGCERGEFGVTYLCTDVDTGDKYACKSISKKKLRTAVDIDDVRREVEIMKHLPKHPNIVTLKDTYEDDNAVHIVMELCEGGELFDRIVARGHYTERAAAVIMKTIVEVVQMCHMHGVMHRDLKPENFLFGNKKETAPLKAIDFGLSVFFKPGERFNEIVGSPYYMAPEVLKRNYGPEVDVWSAGVILYILLCGVPPFWAETEQGVAQAIIRSVVDFKRDPWPKVSDNAKDLVKKMLDPDPTRRLTAQQVLEHTWLQNIKKAPNVSLGETVKARLKQFSVMNKLKKRALTIMAEFLSAEEVAGMKDAFDMMDTGKKGKINLGELKNGLQKLGHQIPDVDLQILMEAADVDGDGSLNYGEFVAVSVHLRKMANDEHLHKAFSVFDRDQSGYIEIEELRSALSDEDGGNSEEVINAIMHDVDTDKDGRISYEEFAAMMKAGTDWRKASRQYSRERFNSLSLKLMRDGSIQVGKEEGR

What was measured:
[1] = biological target: SuSy3-HIS protein (tomato sucrose synthase SuSy3, Solyc07g042550.2.1, His-tagged, expressed in vitro and purified)
[2] = biological target: SlSuSy3^S11A (SuSy3 protein with the serine at position 11 mutated to alanine)
Chain of SlSuSy3^S11A (SuSy3 protein with the serine at position 11 mutated to alanine) (chain, as listed by the source S11A): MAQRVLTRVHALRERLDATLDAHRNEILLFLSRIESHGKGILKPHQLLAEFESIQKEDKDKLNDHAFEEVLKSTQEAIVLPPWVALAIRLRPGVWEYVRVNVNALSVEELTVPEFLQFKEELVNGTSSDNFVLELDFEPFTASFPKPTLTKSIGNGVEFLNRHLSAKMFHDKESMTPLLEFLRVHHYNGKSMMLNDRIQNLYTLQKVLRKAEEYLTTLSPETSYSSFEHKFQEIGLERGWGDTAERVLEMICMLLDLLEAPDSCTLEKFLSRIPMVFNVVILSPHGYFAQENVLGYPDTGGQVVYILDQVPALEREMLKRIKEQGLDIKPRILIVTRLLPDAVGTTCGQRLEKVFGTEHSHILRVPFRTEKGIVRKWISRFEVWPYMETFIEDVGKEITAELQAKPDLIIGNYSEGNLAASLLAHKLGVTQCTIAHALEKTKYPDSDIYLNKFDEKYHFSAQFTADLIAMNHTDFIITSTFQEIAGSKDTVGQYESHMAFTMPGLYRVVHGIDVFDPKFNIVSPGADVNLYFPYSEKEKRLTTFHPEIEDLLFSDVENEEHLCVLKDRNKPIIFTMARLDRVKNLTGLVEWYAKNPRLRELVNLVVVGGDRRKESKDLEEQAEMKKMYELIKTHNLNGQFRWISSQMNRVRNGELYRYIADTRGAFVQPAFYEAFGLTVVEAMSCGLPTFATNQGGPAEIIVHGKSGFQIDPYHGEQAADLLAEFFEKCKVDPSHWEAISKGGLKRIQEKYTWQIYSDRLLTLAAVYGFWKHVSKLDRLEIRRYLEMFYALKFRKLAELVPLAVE

Chain of SuSy3-HIS protein (tomato sucrose synthase SuSy3, Solyc07g042550.2.1, His-tagged, expressed in vitro and purified) (chain, as listed by the source): as the sequence (chain, as listed by the source S11A) above, with A11S counted along it

Row | Protein | in vitro phosphorylation (gamma-32P-ATP, SDS-PAGE, autoradiography) [1] | in vitro phosphorylation assay (autoradiography) [1] | mass spectrometry of phosphorylated residues after co-incubation [1] | in vitro phosphorylation assay (autoradiography) [2]
1 | B1 | the CDPK8 protein itself has kinase activity and can phosphorylate the SuSy3 protein | CDPK8 can phosphorylate the serine at position 11 (S11) of the SuSy3 protein | 14 amino acid residues on the SuSy3 protein can be phosphorylated by CDPK8 protein, and the sites are T7, S11, T19, S152, S165, S174, T176, S191, S219, S360, T430, S535, T543, and S706 in sequence | there is no autoradiographic band, indicating that CDPK8 cannot phosphorylate SISuSy3^S11A
2 | B2 | the mCDPK8 protein lacking two key amino acids has no kinase activity and cannot phosphorylate the SuSy3 protein | – | – | –

From patent US20260103719
